Measured values published in publication PMC7054286, “Functional Characterization of the Arabidopsis Abscisic Acid Transporters NPF4.5 and NPF4.6 in Xenopus Oocytes” (Frontiers in Plant Science, 2020).

Substrate: CC1=CC(=O)CC(C)(C)[C@@]1(O)/C=C/C(C)=C\C(=O)O
Experiment: cells, lysate or membranes
Format: cell-based, Arabidopsis thaliana
Conditions: pH 6.0, ND96, 0-5 μM ABA, labelled compound (10% 3H-ABA, 90% cold), apparent Km

B1: NPF4.6 (Arabidopsis thaliana) (protein)
chain: MEVEEEVSRWEGYADWRNRAAVKGRHGGMLAASFVLVVEILENLAYLANASNLVLYLREYMHMSPSKSANDVTNFMGTAFLLALLGGFLSDAFFSTFQIFLISASIEFLGLIILTIQARTPSLMPPSCDSPTCEEVSGSKAAMLFVGLYLVALGVGGIKGSLASHGAEQFDESTPKGRKQRSTFFNYFVFCLACGALVAVTFVVWLEDNKGWEWGFGVSTIAIFVSILIFLSGSRFYRNKIPCGSPLTTILKVLLAASVKCCSSGSSSNAVASMSVSPSNHCVSKGKKEVESQGELEKPRQEEALPPRAQLTNSLKVLNGAADEKPVHRLLECTVQQVEDVKIVLKMLPIFACTIMLNCCLAQLSTFSVQQAASMNTKIGSLKIPPASLPIFPVVFIMILAPIYDHLIIPFARKATKTETGVTHLQRIGVGLVLSILAMAVAALVEIKRKGVAKDSGLLDSKETLPVTFLWIALQYLFLGSADLFTLAGLLEYFFTEAPSSMRSLATSLSWASLAMGYYLSSVIVSIVNSITGSSGNTPWLRGKSINRYKLDYFYWLMCVLSAANFLHYLFWAMRYKYRSTGSRS
notes: full CDS (pDONR207) in pGEM-GWC; cRNA-injected Xenopus oocytes; tag not given
  Km: 0.452 ± 0.025 µM

B2: NPF4.5 (Arabidopsis thaliana) (protein)
chain: MEVEMHGDVSKWEGYADWRNKAALRGRHGGMLAASFVLAVEILENLAFLANASNLVLYLKNFMHMSLARSSSEVTTFMATAFLLALLGGFLADAFFSTFVIFLISASIEFLGLILLTIQARRPSLMPPPCKSSAALRCEVVGGSKAAFLFVGLYLVSLGIGGIKGSLPSHGAEQFDEGTPKGRKQRSTFFNYYVFCLSCGALVAVTFVVWIEDNKGWEWGFGVSTISIFLSILVFLLGSRFYKNKIPRGSPLTTIFKVLLAASIVSCSSKTSSNHFTSREVQSEHEEKTPSQSLTNSLTCLNKAIEGKTHHIWLECTVQQVEDVKIVLKMLPIFGCTIMLNCCLAQLSTYSVHQAATMNRKIVNFNVPSASLPVFPVVFMLILAPTYDHLIIPFARKVTKSEIGITHLQRIGVGLVLSIVAMAVAALVELKRKQVAREAGLLDSEETLPITFLWIALQYLFLGSADLFTLAGLLEFFFTEAPSSMRSLATSLSWASLALGYYLSSVMVPIVNRVTKSAGQSPWLGEKLNRNRLDLFYWLMCVLSVVNFLHYLFWAKRYKYISTGSIS
notes: full CDS (ABRC, pENTR223) in pGEM-GWC; cRNA-injected Xenopus oocytes; tag not given
  Km: 0.522 ± 0.041 µM
